Test results from US20090191117A1 (published 2009).

Columns and labels:
[1] = target: T1, human αVβ5 integrin, purified (human, UniProt P06756 31-1048; P18084 24-799); assay: comparison of the KD values on integrin coated plates
T1 construct: Bought from Chemicon (Triton or octyl formulation); also called alphaVbeta5; aVb5

[2] = target: T2, integrin aIIbb3 from human placenta extract (human, UniProt P08514 32-1039; P05106 27-788); assay: CNTO 95 affinity column on human placenta extract, Western blot with anti-aIIb
T2 construct: mature; only the aIIb subunit was probed; also called aIIbβ3; GPIIb/IIIa
T2 sequence (P08514 32-1039, chain 1 of 2): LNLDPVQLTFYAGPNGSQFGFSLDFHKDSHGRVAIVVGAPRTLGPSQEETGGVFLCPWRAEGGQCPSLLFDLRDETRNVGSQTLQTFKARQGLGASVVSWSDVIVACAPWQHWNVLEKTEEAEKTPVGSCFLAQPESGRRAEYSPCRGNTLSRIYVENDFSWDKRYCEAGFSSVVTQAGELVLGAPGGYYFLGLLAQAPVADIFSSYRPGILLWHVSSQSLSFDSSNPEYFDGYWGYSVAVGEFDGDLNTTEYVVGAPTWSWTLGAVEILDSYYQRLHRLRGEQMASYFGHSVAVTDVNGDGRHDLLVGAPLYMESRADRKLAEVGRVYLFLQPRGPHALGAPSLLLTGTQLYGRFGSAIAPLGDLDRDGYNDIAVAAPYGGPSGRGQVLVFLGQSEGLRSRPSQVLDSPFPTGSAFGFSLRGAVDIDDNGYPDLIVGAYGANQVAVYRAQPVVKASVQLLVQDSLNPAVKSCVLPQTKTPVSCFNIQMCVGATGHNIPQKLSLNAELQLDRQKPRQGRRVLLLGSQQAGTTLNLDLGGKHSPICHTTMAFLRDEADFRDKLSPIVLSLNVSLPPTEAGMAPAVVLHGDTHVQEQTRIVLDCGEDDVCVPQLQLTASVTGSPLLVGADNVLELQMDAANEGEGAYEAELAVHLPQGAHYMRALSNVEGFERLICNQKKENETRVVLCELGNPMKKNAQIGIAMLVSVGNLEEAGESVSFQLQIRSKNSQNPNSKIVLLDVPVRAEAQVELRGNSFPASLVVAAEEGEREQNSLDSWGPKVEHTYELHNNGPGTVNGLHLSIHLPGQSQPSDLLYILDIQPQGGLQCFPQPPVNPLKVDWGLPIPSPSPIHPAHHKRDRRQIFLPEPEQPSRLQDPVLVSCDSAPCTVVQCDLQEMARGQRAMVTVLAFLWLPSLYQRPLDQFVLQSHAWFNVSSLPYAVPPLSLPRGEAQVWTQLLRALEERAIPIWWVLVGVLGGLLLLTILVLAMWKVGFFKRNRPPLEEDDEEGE
T2 sequence (P05106 27-788, chain 2 of 2): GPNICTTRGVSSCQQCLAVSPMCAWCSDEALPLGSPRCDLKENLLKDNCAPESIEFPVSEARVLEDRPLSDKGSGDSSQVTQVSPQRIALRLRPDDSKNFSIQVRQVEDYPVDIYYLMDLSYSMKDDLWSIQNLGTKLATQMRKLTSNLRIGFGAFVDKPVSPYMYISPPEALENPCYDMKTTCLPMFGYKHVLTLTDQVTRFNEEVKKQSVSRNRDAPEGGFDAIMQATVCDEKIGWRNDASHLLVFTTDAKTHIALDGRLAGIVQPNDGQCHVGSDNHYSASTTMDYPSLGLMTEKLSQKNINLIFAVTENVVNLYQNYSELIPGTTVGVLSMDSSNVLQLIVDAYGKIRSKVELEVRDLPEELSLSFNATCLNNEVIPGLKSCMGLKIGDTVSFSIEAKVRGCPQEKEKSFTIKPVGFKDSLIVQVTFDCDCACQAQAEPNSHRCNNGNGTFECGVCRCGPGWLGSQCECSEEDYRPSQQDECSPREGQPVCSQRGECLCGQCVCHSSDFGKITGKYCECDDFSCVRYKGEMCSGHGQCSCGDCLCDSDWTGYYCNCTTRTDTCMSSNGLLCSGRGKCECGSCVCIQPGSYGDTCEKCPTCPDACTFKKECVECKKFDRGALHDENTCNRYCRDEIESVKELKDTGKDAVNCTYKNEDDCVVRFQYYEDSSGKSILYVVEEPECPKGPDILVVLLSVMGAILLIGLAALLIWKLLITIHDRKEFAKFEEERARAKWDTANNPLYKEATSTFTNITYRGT
Method: (§1) Western blot. […] The filters were blocked with 5% nonfat dry milk in TBS containing 0.05% Tween 20 (wash buffer) at room temperature for 1 hour and then incubated with anti-integrin antibodies (anti-a5 (P-19) Santa Cruz, goat polyclonal IgG 1:500 dilution; anti-aIIb, Chemicon, mouse monoclonal IgG1, 1:1000 dilution; anti-αV (Q-20), Santa Cruz, goat polyclonal IgG, 1:500 dilution; anti-b1 (4B7R), Santa Cruz, mouse monoclonal IgG1, 1:500 dilution; anti-b1 (N-20), Santa Cruz, goat polyclonal IgG, 1:500 dilution; anti-β3 (H-96), Santa Cruz, rabbit polyclonal IgG, 1:500 dilution; anti-β5 (H-96), Santa Cruz, rabbit polyclonal IgG, 1:500 dilution; anti-β6 (H-110), Santa Cruz, rabbit polyclonal IgG, 1:250 dilution). After thorough washing, filters were incubated with appropriate peroxidase-conjugated secondary antibodies (1:20000 dilution). The antigen-antibody complexes were visualized using SuperSignal West Pico Chemiluminescent Substrate kit (Pierce).

[3] = target: T3, human αVβ3 integrin, purified (human, UniProt P06756 31-1048; P05106 27-788); assay: EIA, purified antibody titrated on αVβ3 coated plates
T3 construct: mature; Detergent-extracted heterodimer purified from human placenta at Centocor, or bought from Chemicon; coated on plates or in solution; also called alphaVbeta3; aVb3
T3 sequence (P06756 31-1048, form in doubt, chain 1 of 2): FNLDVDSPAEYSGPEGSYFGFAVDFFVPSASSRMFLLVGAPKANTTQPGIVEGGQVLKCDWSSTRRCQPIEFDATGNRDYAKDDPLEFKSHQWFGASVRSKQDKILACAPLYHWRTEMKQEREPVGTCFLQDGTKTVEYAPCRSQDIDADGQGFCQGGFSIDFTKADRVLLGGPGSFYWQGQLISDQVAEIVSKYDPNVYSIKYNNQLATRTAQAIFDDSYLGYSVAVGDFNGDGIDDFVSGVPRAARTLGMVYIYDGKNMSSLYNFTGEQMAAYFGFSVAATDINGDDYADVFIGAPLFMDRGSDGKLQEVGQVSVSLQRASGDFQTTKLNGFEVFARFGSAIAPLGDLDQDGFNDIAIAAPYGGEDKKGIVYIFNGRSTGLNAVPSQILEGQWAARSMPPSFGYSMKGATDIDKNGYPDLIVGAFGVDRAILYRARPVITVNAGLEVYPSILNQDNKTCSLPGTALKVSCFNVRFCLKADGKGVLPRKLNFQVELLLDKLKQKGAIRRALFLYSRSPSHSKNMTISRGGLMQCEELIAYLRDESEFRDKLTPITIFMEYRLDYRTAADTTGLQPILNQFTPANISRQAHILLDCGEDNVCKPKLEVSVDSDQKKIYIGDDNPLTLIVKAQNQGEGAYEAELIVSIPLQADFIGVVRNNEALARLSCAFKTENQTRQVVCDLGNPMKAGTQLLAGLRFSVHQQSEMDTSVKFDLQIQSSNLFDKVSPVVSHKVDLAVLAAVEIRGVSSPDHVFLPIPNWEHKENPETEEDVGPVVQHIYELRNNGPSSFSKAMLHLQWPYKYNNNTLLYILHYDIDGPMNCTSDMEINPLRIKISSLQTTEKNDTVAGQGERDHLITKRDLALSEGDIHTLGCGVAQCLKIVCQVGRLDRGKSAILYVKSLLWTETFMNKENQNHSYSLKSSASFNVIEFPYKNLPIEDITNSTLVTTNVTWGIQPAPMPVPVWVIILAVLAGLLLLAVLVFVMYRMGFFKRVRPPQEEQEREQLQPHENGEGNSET
T3 sequence (P05106 27-788, form in doubt, chain 2 of 2): as the sequence (P05106 27-788, chain 2 of 2) above

[4] = target: T3, human αVβ3 integrin, purified; assay: saturation binding ELISA on αvβ3 coated plate, non-linear fit, n = 6
Method: (§2) αᵥβ₃ or αᵥβ₅ integrin was diluted to 1 μg/ml in Tris-buffered saline (TBS, 10 mM Tris, 100 mM NaCl, pH 7.5) containing 2 mM calcium chloride (TBS/Ca⁺⁺) and coated at 50 μl per well onto 96 well polystyrene Linbro plates (Flow/ICN) overnight at 4° C. Plates were washed with TBS/Ca⁺⁺ and blocked with 1% bovine serum albumin (BSA) in TBS/Ca⁺⁺ for 1 h at room temperature. Fifty microliters of diluted antibody was added in triplicate to coated wells and incubated for 2 h at 37° C. […] Plates were washed three times, and developed with o-phenylenediamine dihydrochloride substrate solution (OPD, Sigma) consisting of 0.1 M citric acid, 0.2M sodium phosphate, 0.01% H₂O₂ and 1 mg/ml OPD. Color development was stopped after 15 min at room temperature with 0.3 N H₂SO₄, and plates were read at OD₄₉₀ nm in the Molecular Dynamics plate reader.

[5] = target: T4, integrin a5b1 from human placenta extract (human, UniProt P08648 42-1049; P05556 21-798); assay: CNTO 95 affinity column on human placenta extract, Western blot with anti-integrin a5
T4 construct: mature; only the a5 subunit was probed; also called a5 containing heterodimers
Method: as §1

[6] = target: T5, αvβ5 integrin on HT-29 human colon carcinoma cells (human, UniProt P06756 31-1048; P18084 24-799); assay: 125-I antibody saturation binding to HT-29 cells, rounded value
T5 construct: whole, on cells; also called HT-29 cells; HT29 cells
T5 sequence (P06756 31-1048, chain 1 of 2): as the sequence (P06756 31-1048, form in doubt, chain 1 of 2) above
T5 sequence (P18084 24-799, chain 2 of 2): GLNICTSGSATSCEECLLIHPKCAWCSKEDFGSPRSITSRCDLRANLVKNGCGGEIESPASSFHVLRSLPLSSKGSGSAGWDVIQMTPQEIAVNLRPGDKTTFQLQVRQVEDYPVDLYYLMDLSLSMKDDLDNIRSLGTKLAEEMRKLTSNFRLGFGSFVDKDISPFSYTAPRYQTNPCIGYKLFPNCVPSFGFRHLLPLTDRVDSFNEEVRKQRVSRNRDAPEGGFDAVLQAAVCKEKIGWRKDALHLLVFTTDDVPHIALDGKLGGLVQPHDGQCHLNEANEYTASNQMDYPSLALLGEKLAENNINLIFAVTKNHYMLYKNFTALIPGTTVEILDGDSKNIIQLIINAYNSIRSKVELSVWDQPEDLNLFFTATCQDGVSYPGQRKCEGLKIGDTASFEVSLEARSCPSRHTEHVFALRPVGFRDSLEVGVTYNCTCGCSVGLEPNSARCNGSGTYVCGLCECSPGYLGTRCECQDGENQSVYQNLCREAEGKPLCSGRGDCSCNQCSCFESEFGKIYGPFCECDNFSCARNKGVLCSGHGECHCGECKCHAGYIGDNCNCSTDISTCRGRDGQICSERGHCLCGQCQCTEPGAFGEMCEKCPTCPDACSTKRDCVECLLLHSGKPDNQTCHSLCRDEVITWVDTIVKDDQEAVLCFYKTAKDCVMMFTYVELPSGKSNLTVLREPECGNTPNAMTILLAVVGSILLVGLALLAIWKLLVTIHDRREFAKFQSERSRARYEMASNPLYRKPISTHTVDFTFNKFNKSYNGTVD
Method: (§3) Cells were plated 2 days prior to experiment, and 1×10⁵ cells/well at the time of study. […] Nonspecific binding was determined using 100× cold mAb in media. Cells were washed 3× and counted for bound radioactivity. Each curve represents 4-5 separate studies, and each data point in an experiment was the mean of triplicate samples.

[7] = target: T1, human αVβ5 integrin, purified; assay: saturation binding ELISA on αvβ5 coated plate, non-linear fit, n = 6
Method: as §2

[8] = target: T5, αvβ5 integrin on HT-29 human colon …; assay: 125-I antibody saturation binding to HT-29 cells, n = 5
Method: as §3

[9] = target: T1, human αVβ5 integrin, purified; assay: saturation binding ELISA on αvβ5 coated plate, non-linear fit, six experiments
Method: as §2

[10] = target: T5, αvβ5 integrin on HT-29 human colon …; assay: 125-I antibody saturation binding to HT-29 cells
Method: as §3

T1 sequence (P06756 31-1048, form in doubt, chain 1 of 2): as the sequence (P06756 31-1048, form in doubt, chain 1 of 2) above
T1 sequence (P18084 24-799, form in doubt, chain 2 of 2): as the sequence (P18084 24-799, chain 2 of 2) above

B1: CNTO 95 (antibody, V domains shown)
VH: QVQLVESGGGVVQPGRSRRLSCAASGFTFSRYTMHWVRQAPGKGLEWVAVISFDGSNKYYVDSVKGRFTISRDNSENTLYLQVNILRAEDTAVYYCAREARGSYAFDIWGQGTMVTVSS
VL: EIVLTQSPATLSLSPGERATLSCRASQSVSSYLAWYQQKPGQAPRLLIYDASNRATGIPARFSGSGSGTDFTLTISSLEPEDFAVYYCQQRSNWPPFTFGPGTKVDIK
notes: Fully human IgG1 kappa from a transgenic mouse hybridoma; also called GenO95; C371A
fold higher affinity than for αvβ3 purified integrin [1]: ~8 fold
binding result [2]: no binding
EC50 [3]: 0.7 µg/mL
Kd [4]: 0.21 nM
binding result [5]: no binding
Kd [6]: 1 nM
Kd [7]: 0.25 nM
Kd [8]: 1.3 nM
Kd [9]: 0.025 nM
Kd [10]: 0.13 nM
